The chains are these.
B1: peptide of SEQ ID NO: 13 (TP401) (peptide)
peptide: H[Aib]QGTFTSDK([γGlu-γGlu-Palmitoyl])SKYLD[Aib]RAAQ[R6me]FVQWLM[S7]TK-NH2
modifications: staple 21-28; not fully specified (residue 30); printed as HUQGTFTSDK(γEγEC16)SKYLDURAAQ*R6meFVQWLM*S7meTKγE-NH2; also: Lys 30 conjugated by a gamma-glutamic acid (KγE)
B2: peptide of SEQ ID NO: 14 (TP402) (peptide)
peptide: H[Aib]QGTFTSDK([γGlu-γGlu-Palmitoyl])SKYLD[Aib]RAAQDFV[S5]WLM[S5]TK-NH2
modifications: staple 24-28; not fully specified (residue 30); printed as HUQGTFTSDK(γEγEC16)SKYLDURAAQDFV*S5meWLM*S5meTKγE-NH2; also: Lys 30 conjugated by a gamma-glutamic acid (KγE)
B3: peptide of SEQ ID NO: 16 (TP551) (peptide)
peptide: H[Aib]QGTFTSDK([γGlu-γGlu-Palmitoyl])SKYLD[Aib]RAAQDFV[Gly(pent-4-enyl)]WLL[Gly(pent-4-enyl)]TK-NH2
modifications: staple 24-28; not fully specified (residue 30); printed as HUQGTFTSDK(γEγEC16)SKYLDURAAQDFV*S5HWLL*S5HTKγE-NH2; also: Lys 30 conjugated by a gamma-glutamic acid (KγE)
B4: peptide of SEQ ID NO: 17 (TP 556) (peptide)
peptide: HXQGTFTSDKSKYLDERAAXDFVXWLLDT
modifications: as printed: HsQGTFTSDKSKYLDERAA*S5HDFV*S5HWLLDT-NH2; s = D-Serine (position 2); two *S5H (positions 20 and 24) cyclized to form a double bond containing ring; C-terminal amide
B5: peptide of SEQ ID NO: 15 (TP506) (peptide)
peptide: HXQGTFTSDXSKYLDERAAXDFVXWLLDT
modifications: as printed in Table 1: HsQGTFTSDK(γEγEC16)SKYLDERAA*S5HDFV*S5HWLLDT-NH2 (Table 2 prints HSQ...); s = D-Serine (position 2); Lys 10 conjugated to C16 fatty acid via γEγE; two *S5H = (S)-2-aminohept-6-enoic acid (positions 20 and 24) cyclized to form a double bond containing ring; C-terminal amide

Results on twelve molecules are retold here after US20230270825A1, “STAPLED OLEFIN CO-AGONISTS OF THE GLUCAGON AND GLP-1 RECEPTORS” (Merck Sharp & Dohme LLC, priority 2019, published 2023).

Numbered stars: 1 amine (or outer) side, 2 acyl side, 3 side chain; on linkers, the order of the positions; unused ones are H or OH. Bridge positions count the residues as written; N and C are the ends. Square brackets hold non-standard residues; d marks the D form. Side chains are listed from the residue outwards. Ends that are not written are not given here. Peptide text beside a SMILES is read from it. * marks the point of attachment. R6me = (R)-2-amino-2-methyloct-7-enoic acid, C=CCCCC[C@@](C)(N[*:1])C(=O)[*:2]; Nle(6-ylidene) = O=C([C@H](CCCC=[*:3])N[*:1])[*:2]; S7 = C[C@@](CCCCCC=[*:3])(N[*:1])C(=O)[*:2]; X1 = C[C@](CCCCC=[*:3])(N[*:1])C(=O)[*:2]; Gly(pent-4-enyl) = C=CCCC[C@H](N)C(=O)O; γGlu = O=C(O)[C@H](CCC(=O)[*:2])N[*:1]; Palmitoyl = CCCCCCCCCCCCCCCC(=O)*; S5 = C=CCCC[C@](C)(N)C(=O)O; Aib = CC(C)(N)C(=O)O

The target of one experiment is T1, human GCGR (Homo sapiens, UniProt P47871).
T1 construct: expressed in transfected cells; assay-ready frozen cells grown with Blasticidin and Hygromycin
T1 sequence (P47871 26-477): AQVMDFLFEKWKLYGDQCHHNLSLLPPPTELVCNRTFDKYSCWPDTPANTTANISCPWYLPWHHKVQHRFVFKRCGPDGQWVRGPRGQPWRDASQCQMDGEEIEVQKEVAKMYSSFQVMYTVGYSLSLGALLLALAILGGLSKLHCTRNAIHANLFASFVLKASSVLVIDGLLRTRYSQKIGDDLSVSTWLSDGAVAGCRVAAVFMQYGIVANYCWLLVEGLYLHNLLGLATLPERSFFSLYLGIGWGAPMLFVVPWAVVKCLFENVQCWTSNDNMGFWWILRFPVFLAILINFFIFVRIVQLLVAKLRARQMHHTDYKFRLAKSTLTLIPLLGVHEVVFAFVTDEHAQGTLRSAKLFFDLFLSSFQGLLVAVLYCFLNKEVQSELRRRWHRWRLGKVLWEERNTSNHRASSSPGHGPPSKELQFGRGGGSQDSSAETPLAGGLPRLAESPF
Description: cAMP activity assay, cells expressing human GCGR (HitHunter cAMP XS). The conditions noted are these: cAMP production, 1 hour at room temperature; assay buffer with or without 20% human serum (not stated which). The format is cell-based. How it is done: Activity of the peptides at the Glucagon receptor (GCGR) and GLP-1 receptor (GLP1R) was measured in a cAMP activity assay.
Peptides were dissolved in 100% DMSO and serially diluted to generate 10 point titrations. The peptide solutions were then transferred into 384-well assay plates (150 nL/well).
Assay ready frozen cells expressing human GLP1R or human GCGR were suspended in growth media consisting of DMEM medium (GIBCO), 10% FBS (GIBCO), 1x NEAA(GIBCO), 1x P/S (GIBCO), 10ug/ml Blasticidin (GIBCO) and 200 µg/mL Hygromycin (GIBCO). Cells were then diluted in assay buffer consisting of PBS (GIBCO), 7.5% BSA (Perkin Elmer), 100 µM RO 20-1724 (Sigma), with or without 20% human serum (MP Biomedical). The cell suspensions (15 µL) were then added to the assay plates containing the peptide solutions (30,000 cells/well for human GCGR; 10.000 cells/well for human GLP1R). The cells were incubated for 1 hour at room temperature in the dark. Production of cAMP was determined using HitHunter™ cAMPXS kits (DiscoverX) following manufacturer protocol. The plates were incubated for overnight at room temperature in the dark. Luminescence was measured using an EnVision Multilabel plate reader (Perkin Elmer). Native GLP-1 and Glucagon (Bachem) are used as control peptides. EC50 values were calculated using uses a 4 parameter logistic fit based on the Levenberg-Marquardt algorithm.
(In general: cAMP levels reflect the balance of adenylyl cyclase and phosphodiesterase activity.)
Turning to `CCCCCCCCCCCCCCCC(=O)N[C@@H](CCC(=O)N[C@@H](CCC(=O)NCCCC[C@H](NC(=O)[C@H](CC(=O)O)NC(=O)[C@H](CO)NC(=O)[C@@H](NC(=O)[C@H](Cc1ccccc1)NC(=O)[C@@H](NC(=O)CNC(=O)[C@H](CCC(N)=O)NC(=O)[C@@H](CO)NC(=O)[C@@H](N)Cc1c[nH]cn1)[C@@H](C)O)[C@@H](C)O)C(=O)N[C@@H](CO)C(=O)N[C@]1(C)CCCCC=CCCCCC[C@@](C)(C(=O)N[C@@H](CCC(N)=O)C(=O)N[C@@H](CC(=O)O)C(=O)N[C@@H](Cc2ccccc2)C(=O)N[C@H](C(=O)N[C@@H](CCC(N)=O)C(=O)N[C@@H](Cc2c[nH]c3ccccc23)C(=O)N[C@@H](CC(C)C)C(=O)N[C@@H](CC(C)C)C(=O)N[C@@H](CC(=O)O)C(=O)N[C@H](C(N)=O)[C@@H](C)O)C(C)C)NC(=O)[C@H](C)NC(=O)[C@H](CCCNC(=N)N)NC(=O)[C@H](CCC(=O)O)NC(=O)[C@H](CC(=O)O)NC(=O)[C@H](CC(C)C)NC(=O)[C@H](Cc2ccc(O)cc2)NC1=O)C(=O)O)C(=O)O` [compound 7] (H-H[dS]QGTFTSDK([γGlu-γGlu-Palmitoyl])S[X1]YLDERA[S7]QDFVQWLLDT-NH2; staple 12-19), a half-maximal effect (EC50) was put at 5 nM. This counts as single-digit nanomolar.

`CC(C)C[C@H](NC(=O)[C@H](Cc1ccc(O)cc1)NC(=O)[C@H](CCCCN)NC(=O)[C@H](CO)NC(=O)[C@H](CCCCN)NC(=O)[C@H](CC(=O)O)NC(=O)[C@H](CO)NC(=O)[C@@H](NC(=O)[C@H](Cc1ccccc1)NC(=O)[C@@H](NC(=O)CNC(=O)[C@H](CCC(N)=O)NC(=O)[C@@H](CO)NC(=O)[C@@H](N)Cc1c[nH]cn1)[C@@H](C)O)[C@@H](C)O)C(=O)N[C@@H](CC(=O)O)C(=O)N[C@@H](CCC(=O)O)C(=O)N[C@]1(C)CCCCC=CCCCCC[C@@](C)(C(=O)N[C@@H](Cc2c[nH]c3ccccc23)C(=O)N[C@@H](CC(C)C)C(=O)N[C@@H](CC(C)C)C(=O)N[C@@H](CC(=O)O)C(=O)N[C@H](C(N)=O)[C@@H](C)O)NC(=O)[C@H](C(C)C)NC(=O)[C@H](Cc2ccccc2)NC(=O)[C@H](CC(=O)O)NC(=O)[C@H](CCC(N)=O)NC(=O)[C@H](C)NC(=O)[C@H](C)NC1=O` [compound 9] (H-H[dS]QGTFTSDKSKYLDE[X1]AAQDFV[S7]WLLDT-NH2; staple 17-24): the EC50 (usually the midpoint of the concentration-response curve) turned out to be 5 nM.

The experiment is the same for the next values; noted with them: ratio of human GCGR EC50 to human GLP1R EC50.
As to `CC(C)C[C@H](NC(=O)[C@H](Cc1ccc(O)cc1)NC(=O)[C@H](CCCCN)NC(=O)[C@H](CO)NC(=O)[C@H](CCCCN)NC(=O)[C@H](CC(=O)O)NC(=O)[C@H](CO)NC(=O)[C@@H](NC(=O)[C@H](Cc1ccccc1)NC(=O)[C@@H](NC(=O)CNC(=O)[C@H](CCC(N)=O)NC(=O)[C@@H](CO)NC(=O)[C@@H](N)Cc1c[nH]cn1)[C@@H](C)O)[C@@H](C)O)C(=O)N[C@@H](CC(=O)O)C(=O)N[C@@H](CCC(=O)O)C(=O)N[C@@H](CCCNC(=N)N)C(=O)N[C@@H](C)C(=O)N[C@@H](C)C(=O)N[C@H]1CCCC=CCCC[C@@H](C(=O)N[C@@H](Cc2c[nH]c3ccccc23)C(=O)N[C@@H](CC(C)C)C(=O)N[C@@H](CC(C)C)C(=O)N[C@@H](CC(=O)O)C(=O)N[C@H](C(N)=O)[C@@H](C)O)NC(=O)[C@H](C(C)C)NC(=O)[C@H](Cc2ccccc2)NC(=O)[C@H](CC(=O)O)NC1=O` [compound 17] (H-H[dS]QGTFTSDKSKYLDERAA[Nle(6-ylidene)]DFV[Nle(6-ylidene)]WLLDT-NH2; staple 20-24), the “hGCGR/hGLP1R (hTone)” value stood at 1.42.

On to `CC(C)C[C@H](NC(=O)[C@H](Cc1ccc(O)cc1)NC(=O)[C@H](CCCCN)NC(=O)[C@H](CO)NC(=O)[C@H](CCCCN)NC(=O)[C@H](CC(=O)O)NC(=O)[C@H](CO)NC(=O)[C@@H](NC(=O)[C@H](Cc1ccccc1)NC(=O)[C@@H](NC(=O)CNC(=O)[C@H](CCC(N)=O)NC(=O)[C@@H](CO)NC(=O)[C@@H](N)Cc1c[nH]cn1)[C@@H](C)O)[C@@H](C)O)C(=O)N[C@@H](CC(=O)O)C(=O)N[C@@H](CCC(=O)O)C(=O)N[C@@H](CCCNC(=N)N)C(=O)N[C@@H](C)C(=O)N[C@@H](C)C(=O)N[C@@]1(C)CCCC=CCCC[C@@](C)(C(=O)N[C@@H](Cc2c[nH]c3ccccc23)C(=O)N[C@@H](CC(C)C)C(=O)N[C@@H](CC(C)C)C(=O)N[C@@H](CC(=O)O)C(=O)N[C@H](C(N)=O)[C@@H](C)O)NC(=O)[C@H](C(C)C)NC(=O)[C@H](Cc2ccccc2)NC(=O)[C@H](CC(=O)O)NC1=O` [compound 19] (H-H[dS]QGTFTSDKSKYLDERAA[S5]DFV[S5]WLLDT-NH2; staple 20-24), for which the “hGCGR/hGLP1R (hTone)” value turned out to be 0.77.

The target of another experiment is human GLP-1 receptor (GLP1R) (human, UniProt P43220). As to the kind of experiment: cell-based or functional assay.
Conditions: not given
B1: the “GLP1R EC50 human (cAMP activity assay)” value was determined as 0.26 nM.

As for H[dS]QGTFTSDKS[R6me]YLDERA[S7]QDFVQWLLDT-NH2 (staple 12-19) [peptide of SEQ ID NO: 6 (TP397)], the “GLP1R EC50 human (cAMP activity assay)” value was determined as 5.3 nM.

Turning to H[dS]QGTFTSDK([γGlu-γGlu-Palmitoyl])SKYLDERAA[R6me]DFVQWL[S7]DT-NH2 (staple 20-27) [peptide of SEQ ID NO: 10 (TP399)], the “GLP1R EC50 human (cAMP activity assay)” value is 0.45 nM.

Turning to H[dS]QGTFTSDKSKYLDERAA[R6me]DFVQWL[S7]DT-NH2 (staple 20-27) [peptide of SEQ ID NO: 11 (TP 399)], the “GLP1R EC50 human (cAMP activity assay)” value turned out to be 2.74 nM.

Consider B2, for which the “GLP1R EC50 human (cAMP activity assay)” value was 0.13 nM.

On to B3, for which the “GLP1R EC50 human (cAMP activity assay)” value turned out to be 0.18 nM.

As to B4, the “GLP1R EC50 human (cAMP activity assay)” value was 2.38 nM.

Consider B5, for which the “GLP1R EC50 human (cAMP activity assay)” value came to 1.5 nM.

For another experiment, the target named is human Glucagon receptor (GCGR) (human, UniProt P47871). Description: cell-based or functional assay.
Conditions: not given
Turning to B1, the “GCGR EC50 human (cAMP activity assay)” value stood at 5 nM.

Take H[dS]QGTFTSDKS[R6me]YLDERA[S7]QDFVQWLLDT-NH2 (staple 12-19) [peptide of SEQ ID NO: 6 (TP397)]: the “GCGR EC50 human (cAMP activity assay)” value was 20 nM.

On to H[dS]QGTFTSDK([γGlu-γGlu-Palmitoyl])SKYLDERAA[R6me]DFVQWL[S7]DT-NH2 (staple 20-27) [peptide of SEQ ID NO: 10 (TP399)], for which the “GCGR EC50 human (cAMP activity assay)” value worked out at 8.64 nM.

Consider H[dS]QGTFTSDKSKYLDERAA[R6me]DFVQWL[S7]DT-NH2 (staple 20-27) [peptide of SEQ ID NO: 11 (TP 399)], for which the “GCGR EC50 human (cAMP activity assay)” value stood at 5 nM.

On to B2, for which the “GCGR EC50 human (cAMP activity assay)” value amounted to 4.56 nM.

Turning to B3, the “GCGR EC50 human (cAMP activity assay)” value was 0.48 nM.

On to B4, for which the “GCGR EC50 human (cAMP activity assay)” value was 3.38 nM.

With B5, the “GCGR EC50 human (cAMP activity assay)” value was determined as 0.67 nM.
